Measurements from the supplement of paper PMC10567573.

B1: ELF3 (parent)
chain: RLVYKFGKNSSGWKEEEVLQSRN
B2: TRIM55 (parent)
chain: YLPTRGGTTMASGGRFRCPSCRHE

Variants of: B1
Assay: protein stability index of a GFP-peptide fusion (GPS, HEK-293T) (PSI 1-6); higher = more stable
Conditions: c terminus: native
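Note: lentivirally expressed fusions sorted by FACS into six bins by GFP to DsRed ratio, PSI derived from sequencing read proportions per bin multiplied by bin number.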

Protein stability index of substitutions, site by site:
S21: L 3.31; M 2.31; N 2.49; P 3.39; Q 3.82; T 2.1; V 1.82; Y 2.72
R22: A 2.85; C 2.35; D 4.7; F 3.01; H 3.53; I 3.42; K 3.75; L 2.56; M 2.72; N 3.96; P 3.62; Q 3.02; S 2.92; T 3.51; Y 2.06
N23: A 2.28; C 1.7; D 2.7; E 3.68; F 2.86; G 2; I 1.8; K 3.52; L 3.28; M 1.81; P 3.22; Q 1.87; S 2.51; T 2.37; V 2.62; W 2.13; Y 2.31

Variants of: B2
Assay: as above
Conditions: c terminus: a fixed tail appended

Protein stability index: each site, then its substitutions
Y1: A 2.59; C 2.14; D 2.15; F 2.51; G 3.18; H 2.79; I 2.52; K 1.46; L 2.06; M 1.67; N 3.07; Q 2.45; S 3.15; V 1.89; W 2.99
L2: E 2.98; F 2.46; H 2.78; I 2.22; K 1.32; M 1.93; P 1.71; Q 1.02; R 1.77; T 1.38; W 2.7
P3: D 1.04; E 1; I 1; L 1.32; N 2.29; R 3.49; V 1.97
T4: C 3.98; E 3.35; H 1.19; L 2.73; M 1.26; P 1.36; Q 1.7; S 2.1; V 4.07; W 1; Y 1.24
R5: A 1.87; D 1.73; E 2.4; G 2; H 1.32; I 1.98; N 1.44; Q 2.28; V 1.51; W 3.96
G6: C 1.84; D 2.45; E 1.67; I 1.04; L 1.76; N 1.21; P 1.78; Q 2.15; S 1.97; W 1.46; Y 1.37
G7: A 1.64; E 1.75; F 1.26; I 1.45; K 1.01; L 1.34; P 2.91; Q 2.24; R 1.12; T 2.33; V 1.37; W 1.5; Y 2.17
T8: A 1.11; C 3.19; D 1.36; H 2.88; K 2.1; L 4.11; M 4.36; N 1.98; R 1.94; S 1.14; V 2.03; Y 4.26
T9: A 2.77; E 2.66; F 2.12; G 1.26; M 1.36; N 2.01; P 2.49; Q 1.11; R 1.82
M10: A 2.85; C 2.91; E 1.97; G 2.61; I 2.27; K 1.11; N 1.96; P 2.5; Q 2.03; T 4.08; V 1.65; W 2.58; Y 1.89
A11: E 2; F 1.98; H 1.83; I 1.05; K 1.36; M 1.18; N 1.65; Q 1.96; R 1.37; T 2.46; Y 3.34
S12: A 1.87; C 1.41; D 1.34; E 2.09
